B1: anti-Siglec-3 mAb clone 10C8 (antibody, human IgG1, kappa, V domains shown)
VH: EVQLVESGGGLVQPGGSLRLSCAASGFTINNGWIHWVRQAPGKGLEWVAGIGPYGGSTFYADSVKGRFTISADTSKNTAYLQMNSLRAEDTAVYYCSRFIGSYSHMDYWGQGTLVTVSS
VL: DIQMTQSPSSLSASVGDRVTITCRASQDVYYYVAWYQQKPGKAPKLLISSAGGLYSGVPSRFSGSGSGTDFTLTISSLQPEDFATYYCQQYFNFPLTFGQGTKVEIKR
notes: the isotype control used beside it is IgG1; also called mAb 10C8; antibody 10C8
B2: SHP-1 (enzyme)
chain: not shown

What was measured:
[1] = target: T1, human Siglec-3 on cells (moDC, PBMC of CHB patients) (human, UniProt P20138 18-364); assay: flow cytometry on moDC with APC-conjugated anti-Siglec-3 mAb
T1 construct: whole, on cells; also called Siglec-3 receptor
T1 sequence (P20138 18-364): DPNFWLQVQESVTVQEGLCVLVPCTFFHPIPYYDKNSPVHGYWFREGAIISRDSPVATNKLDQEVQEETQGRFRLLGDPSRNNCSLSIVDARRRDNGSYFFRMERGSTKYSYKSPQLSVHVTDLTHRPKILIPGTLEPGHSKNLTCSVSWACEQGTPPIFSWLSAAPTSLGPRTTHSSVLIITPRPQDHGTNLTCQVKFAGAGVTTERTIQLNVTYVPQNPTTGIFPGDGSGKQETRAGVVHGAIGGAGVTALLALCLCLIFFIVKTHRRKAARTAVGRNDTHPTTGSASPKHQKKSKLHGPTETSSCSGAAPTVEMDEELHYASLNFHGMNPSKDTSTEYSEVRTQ

[2] = target: T1, human Siglec-3 on cells (moDC, PBMC of …); assay: co-IP (IP: Siglec-3) from moDC incubated 30 mins with 3x10^8 copies/mL hHBV; Western blot, densitometry, normalized to the first lane [F]
[3] = target: T1, human Siglec-3 on cells (moDC, PBMC of …); assay: co-IP (IP: Siglec-3) from moDC incubated 30 mins with 10^9 copies/mL hHBV; Western blot, densitometry, normalized to the first lane [F]
[4] = target: T1, human Siglec-3 on cells (moDC, PBMC of …); assay: co-IP (IP: Siglec-3) from moDC, HBV +, 10C8 + (10C8 given 1 hour before HBV); Western blot, densitometry, normalized to the untreated control [E]
[5] = target: T1, human Siglec-3 on cells (moDC, PBMC of …); assay: co-IP (IP: Siglec-3) from moDC treated with anti-Siglec-3 mAb 10C8; Western blot, densitometry, fold of Mock [A]
[6] = target: T1, human Siglec-3 on cells (moDC, PBMC of …); assay: co-IP (IP: Siglec-3) from moDC, HBV -, 10C8 +; Western blot, densitometry, normalized to the untreated control [E]
[7] = target: T1, human Siglec-3 on cells (moDC, PBMC of …); assay: co-IP (IP: Siglec-3) from moDC incubated with hHBV for 0 min; Western blot, densitometry, normalized to the starting point [E]
[8] = target: T1, human Siglec-3 on cells (moDC, PBMC of …); assay: co-IP (IP: Siglec-3) from moDC incubated with hHBV for 60 min; Western blot, densitometry, normalized to the starting point [E]
[9] = target: T1, human Siglec-3 on cells (moDC, PBMC of …); assay: co-IP (IP: Siglec-3) from moDC incubated with hHBV for 30 min; Western blot, densitometry, normalized to the starting point [E]
[10] = target: T1, human Siglec-3 on cells (moDC, PBMC of …); assay: co-IP (IP: Siglec-3) from moDC, HBV -, 10C8 -; Western blot, densitometry, normalized to the untreated control [E]
[11] = target: T1, human Siglec-3 on cells (moDC, PBMC of …); assay: co-IP (IP: Siglec-3) from moDC treated with anti-Siglec-3 mAb 2B9; Western blot, densitometry, fold of Mock; strong band at the 72 mark [A]
[12] = target: T1, human Siglec-3 on cells (moDC, PBMC of …); assay: co-IP (IP: Siglec-3) from moDC incubated 30 mins with 10^8 copies/mL hHBV; Western blot, densitometry, normalized to the first lane [F]
[13] = target: T1, human Siglec-3 on cells (moDC, PBMC of …); assay: co-IP (IP: Siglec-3) from moDC incubated with hHBV for 15 min; Western blot, densitometry, normalized to the starting point [E]
[14] = target: T1, human Siglec-3 on cells (moDC, PBMC of …); assay: co-IP (IP: Siglec-3) from moDC, HBV +, 10C8 -; Western blot, densitometry, normalized to the untreated control [E]
[15] = target: T1, human Siglec-3 on cells (moDC, PBMC of …); assay: co-IP (IP: Siglec-3) from moDC incubated 30 mins with 0 copies/mL hHBV; Western blot, densitometry, normalized to the first lane [F]
[16] = target: T1, human Siglec-3 on cells (moDC, PBMC of …); assay: co-IP (IP: Siglec-3) from moDC, lane Mock; Western blot, densitometry [A]
[17] = target: T1, human Siglec-3 on cells (moDC, PBMC of …); assay: co-IP (IP: Siglec-3) from moDC treated with HBV (hHBV); Western blot, densitometry, fold of Mock [A]

Binder | binding result [1] | fold change of SHP-1 co-precipitated with Siglec-3 [2] | fold change of SHP-1 co-precipitated with Siglec-3 [3] | fold change of SHP-1 co-precipitated with Siglec-3 [4] | fold change of SHP-1 co-precipitated with Siglec-3 [5] | fold change of SHP-1 co-precipitated with Siglec-3 [6] | fold change of SHP-1 co-precipitated with Siglec-3 [7] | fold change of SHP-1 co-precipitated with Siglec-3 [8] | fold change of SHP-1 co-precipitated with Siglec-3 [9] | fold change of SHP-1 co-precipitated with Siglec-3 [10] | fold change of SHP-1 co-precipitated with Siglec-3 [11] | fold change of SHP-1 co-precipitated with Siglec-3 [12] | fold change of SHP-1 co-precipitated with Siglec-3 [13] | fold change of SHP-1 co-precipitated with Siglec-3 [14] | fold change of SHP-1 co-precipitated with Siglec-3 [15] | fold change of SHP-1 co-precipitated with Siglec-3 [16] | fold change of SHP-1 co-precipitated with Siglec-3 [17]
B1 | binds |  |  |  |  |  |  |  |  |  |  |  |  |  |  |  | 
B2 |  | 7.7 fold | 14 fold | 1.2 fold | 1.3 fold | 1.3 fold | 1 fold | 11 fold | 26 fold | 1 fold | 36 fold | 1.5 fold | 9.1 fold | 10 fold | 1 fold | 1 fold | 2.4 fold

— patent US20210292413A1 (ACADEMIA SINICA, published 2021)
